Assay results from patent publication WO2016008851A1 (dated 2016).
Changes are numbered by the printed parent chain.

B1: 36C2 (recombinant chimeric antibody: mouse 36C2 variable domains, human IgG1 constant domains) (antibody, V domains shown)
VH: QVQLQQSGAELARPGTSLKMSCKATGYTFTNYWIAWVKQRPGYGLEWIGSIFPGGDYTNYNEKFKGKATLTADTSSSTSYMQLSSLTSEDSAIYYCTRPYYSNYGHFDYWGQGTTLTVSS
VL: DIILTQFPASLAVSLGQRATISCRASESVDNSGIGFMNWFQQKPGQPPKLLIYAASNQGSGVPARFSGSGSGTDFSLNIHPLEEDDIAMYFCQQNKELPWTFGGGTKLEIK
notes: also called chimeric antibody 36C2
B2: Antibody A1 (antibody, V domains shown)
VH: QVQLVQSGAEVKKPGASVKVSCKATGYTFTNYWIAWVKQAPGQGLEWMGSIFPGGDYTNYNEKFKGKVTMTRDTSTSTSYMELSSLRSEDTAVYYCARPYYSNYGHFDYWGQGTLVTVSS
VL: EIVLTQSPATLSLSPGERATLSCRASESVDNSGIGFMNWYQQKPGQAPKLLIYAASNQGSGIPARFSGSGSGTDFTLTISRLEPEDFAMYYCQQNKELPWTFGGGTKLEIK
B3: Antibody A4 (antibody, V domains shown)
VH: B2 VH with N31D, K38R, K67R
VL: B2 VL with K49R, M89V, G104Q
B4: Antibody A3 (antibody, V domains shown)
VH: B2 VH with N31D, K38R, K67R, V93I
VL: B2 VL with V3I, S7F, L21I, K49R, M89V, G104Q
B5: Antibody B1 (antibody, V domains shown)
VH: EVQLVQSGAEVKKPGASVKVSCKASGFSFTGYYMHWVRQAPGQGLEWVGLIIPHNDYTVNNQKFKGRVTMTRDTSTSTAYMELSSLRSEDTAVYYCARSDYYGAMDYWGQGTLVTVSS
VL: EIVMTQSPATLSVSPGERATLSCRASQNIGTSIHWYQQKPGQAPRLLIKYASNSIYGIPARFSGSGSGTEFTLTISSLQSEDIAVYYCQQGASWPPFTFGQGTKLEIK
B6: Antibody B4 (antibody, V domains shown)
VH: B5 VH
VL: B5 VL with N53D, I55K, Y56D
B7: Antibody B3 (antibody, V domains shown)
VH: B5 VH
VL: B5 VL with N53D, I55V
B8: 36C2 (original hybridoma antibody) (antibody, V domains shown)
VH: B1 VH
VL: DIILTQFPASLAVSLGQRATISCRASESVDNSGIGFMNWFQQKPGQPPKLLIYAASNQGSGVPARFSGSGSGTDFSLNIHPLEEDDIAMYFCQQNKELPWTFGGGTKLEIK

Each binder was assayed against T1, recombinant human IL-1B (human, UniProt P01584 117-269) (assay: Kinexa).
T1 construct: also called rec. human IL-1B; hIL-1B

| Kd [nM] | Binder |
| --- | --- |
| < 0.01 | B1 |

These binders were tested against T1, recombinant human IL-1B (assay: cell-based or functional assay).

| IC50, rec. human IL-1 B, HEK blue [nM] | IC50, rec. human IL-1 B, MRC-5 (IL-6 production) [nM] | IC90, rec. human IL-1 B, HEK blue [nM] | IC90, rec. human IL-1 B, MRC-5 (IL-6 production) [nM] | Binder |
| --- | --- | --- | --- | --- |
| 0.033 | 0.01 | 0.329 | 0.131 | B2 |
| 0.04 | 0.016 | 0.495 | 0.125 | B3 |
| 0.042 | 0.013 | 0.34 | 0.162 | B4 |
| 0.017 | 0.007 | 0.15 | 0.044 | B1 |
| 0.013 | 0.013 | 0.11 | 0.11 | B5 |
| 0.018 | 0.018 | 0.098 | 0.098 | B6 |
| 0.008 | 0.008 | 0.257 | 0.257 | B7 |

The binders below were run against Endogenous human IL-1B (THP1 supernatants) (human, UniProt P01584 117-269) (assay: cell-based or functional assay).

| IC50, Endogenous human IL-1 B (THP1 supernatants), HEK blue [nM] | IC90, Endogenous human IL-1 B (THP1 supernatants), HEK blue [nM] | Binder |
| --- | --- | --- |
| 0.009 | 0.15 | B2 |
| 0.036 | 0.262 | B3 |
| 0.008 | 0.246 | B4 |
| 0.003 | 0.096 | B1 |
| 0.003 | 0.068 | B5 |
| 0.007 | 0.091 | B6 |
| 0.001 | 0.075 | B7 |

Each binder was assayed against recombinant cynomolgus IL-1B (cynomolgus, UniProt P79182 117-268, limits assumed) (assay: cell-based or functional assay).
Sequence of recombinant cynomolgus IL-1B (P79182 117-268 limits assumed): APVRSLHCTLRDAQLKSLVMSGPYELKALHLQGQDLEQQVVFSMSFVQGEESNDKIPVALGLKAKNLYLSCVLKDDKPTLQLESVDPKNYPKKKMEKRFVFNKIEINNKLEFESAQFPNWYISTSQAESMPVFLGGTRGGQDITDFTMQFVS

| IC50, rec. cyno IL-1 B, HEK blue [nM] | IC90, rec. cyno IL-1 B, HEK blue [nM] | Binder |
| --- | --- | --- |
| 0.03 | 0.167 | B2 |
| 0.026 | 0.205 | B3 |
| 0.023 | 0.236 | B4 |
| 0.014 | 0.154 | B1 |
| 0.013 | 0.127 | B5 |
| 0.02 | 0.101 | B6 |
| 0.014 | 0.154 | B7 |

Each binder was assayed against recombinant mouse IL-1B (mouse, UniProt P10749 118-269) (assay: cell-based or functional assay).
Sequence of recombinant mouse IL-1B (P10749 118-269 limits assumed): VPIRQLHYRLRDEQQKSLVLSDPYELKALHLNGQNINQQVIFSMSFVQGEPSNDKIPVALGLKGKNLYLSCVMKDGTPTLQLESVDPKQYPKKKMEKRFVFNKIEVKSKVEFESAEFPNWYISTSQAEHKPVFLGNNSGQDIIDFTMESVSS

| IC50, rec. mouse IL-1 B, HEK blue [nM] | IC90, rec. mouse IL-1 B, HEK blue [nM] | IC50, mouse IL-1 B-induced KC release, mouse endothelial bEnd3 cells stimulated with 15 pM recombinant mouse IL-1 B [nM] | Binder |
| --- | --- | --- | --- |
| 1.14 | 3.25 |  | B2 |
| 1.08 | 3.98 |  | B3 |
| 0.998 | 3.64 |  | B4 |
|  |  | 0.5 | B8 |

The binders below were run against T1, recombinant human IL-1B (assay: Kinexa, solution equilibrium titration of hIL-1B against 10 pM antibody; mean ± SEM (N = 3)).

| Kd [nM] | Binder |
| --- | --- |
| 0.00556 | B1 |
